Reference: doi:10.1101/332015 (bioRxiv, 2018)

T1: ARC_(131-396) (human, UniProt Q7LC44 131-396)
T1 sequence (looked up): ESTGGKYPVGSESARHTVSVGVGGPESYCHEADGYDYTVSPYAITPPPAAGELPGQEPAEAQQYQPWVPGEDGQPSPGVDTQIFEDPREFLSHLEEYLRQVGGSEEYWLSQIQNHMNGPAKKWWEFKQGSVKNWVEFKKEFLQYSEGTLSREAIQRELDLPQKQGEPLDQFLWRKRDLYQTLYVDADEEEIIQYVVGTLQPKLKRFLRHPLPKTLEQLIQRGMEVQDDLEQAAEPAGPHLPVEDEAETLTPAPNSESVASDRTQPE

T2: ARC_(170-396) (human, UniProt Q7LC44 170-396)
T2 sequence (looked up): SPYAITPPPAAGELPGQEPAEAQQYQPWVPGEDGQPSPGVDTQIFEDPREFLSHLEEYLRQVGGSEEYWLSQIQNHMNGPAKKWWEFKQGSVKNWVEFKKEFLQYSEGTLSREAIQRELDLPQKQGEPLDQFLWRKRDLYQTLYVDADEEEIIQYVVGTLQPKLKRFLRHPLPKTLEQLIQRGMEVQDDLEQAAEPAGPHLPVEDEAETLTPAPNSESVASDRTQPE

T3: ARC_(206-396) (human, UniProt Q7LC44 206-396)
T3 sequence (looked up): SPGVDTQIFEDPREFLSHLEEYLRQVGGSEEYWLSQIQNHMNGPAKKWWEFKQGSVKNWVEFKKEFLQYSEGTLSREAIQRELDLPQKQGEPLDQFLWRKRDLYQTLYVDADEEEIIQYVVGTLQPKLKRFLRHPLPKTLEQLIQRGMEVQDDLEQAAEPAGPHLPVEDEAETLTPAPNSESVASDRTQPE

T4: ARC_(206-361) (human, UniProt Q7LC44 206-361)
T4 sequence (looked up): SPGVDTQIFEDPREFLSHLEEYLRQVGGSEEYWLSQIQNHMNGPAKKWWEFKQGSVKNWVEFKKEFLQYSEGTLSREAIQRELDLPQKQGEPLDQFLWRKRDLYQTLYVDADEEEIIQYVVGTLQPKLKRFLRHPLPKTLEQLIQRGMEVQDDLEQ

T5: ARC_(207-277) (human, UniProt Q7LC44 207-277)
T5 sequence (looked up): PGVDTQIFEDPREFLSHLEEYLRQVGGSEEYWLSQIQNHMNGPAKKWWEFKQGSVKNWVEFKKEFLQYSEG


Experiments:
[1] = biological target: full-length human ARC (ARC_(1-396)) (human) (UniProt Q7LC44); experiment: SEC-MALS
ARC_(131-396) = biological target: T1, ARC_(131-396); experiment: SAXS
ARC_(170-396) = biological target: T2, ARC_(170-396); experiment: SAXS
ARC_(206-396) = biological target: T3, ARC_(206-396); experiment: SAXS
ARC_(206-361) = biological target: T4, ARC_(206-361); experiment: SAXS
ARC_(207-277) [2] = biological target: T5, ARC_(207-277); experiment: SAXS
ARC_(207-277) [3] = biological target: T5, ARC_(207-277); experiment: synchrotron radiation circular dichroism

| Molecule | stoichiometry N [1] | binding result (ARC_(131-396)) | binding result (ARC_(170-396)) | binding result (ARC_(206-396)) | binding result (ARC_(206-361)) | binding result (ARC_(207-277) [2]) | binding result (ARC_(207-277) [3]) |
| --- | --- | --- | --- | --- | --- | --- | --- |
| full-length human ARC (ARC_(1-396)) (from UniProt Q7LC44 1-396) (natural protein) | 2 |  |  |  |  |  |  |
| Ac-TSPKFRSR-NH2 [GKAP peptide (TSPKFRSR)] |  | binds | binds | binds | binds | binds |  |
| Ac-RTPVFVSP-NH2 [WAVE1 peptide (RTPVFVSP)] |  | binds | binds | binds | binds | binds |  |
| Ac-RIPSYRYR-NH2 [Stargazin peptide (RIPSYRYR)] |  | binds | binds | binds | binds |  | binds |
